From US20250101080A1 (BIOSCEPTRE AUST, published 2025)

How the values were obtained:
[1] = target: T1, EXD2_K193A (nf-P2X7) surface fusion protein on HEK293 cells (human, UniProt Q99572 47-332); assay: cell-based or functional assay
T1 sequence: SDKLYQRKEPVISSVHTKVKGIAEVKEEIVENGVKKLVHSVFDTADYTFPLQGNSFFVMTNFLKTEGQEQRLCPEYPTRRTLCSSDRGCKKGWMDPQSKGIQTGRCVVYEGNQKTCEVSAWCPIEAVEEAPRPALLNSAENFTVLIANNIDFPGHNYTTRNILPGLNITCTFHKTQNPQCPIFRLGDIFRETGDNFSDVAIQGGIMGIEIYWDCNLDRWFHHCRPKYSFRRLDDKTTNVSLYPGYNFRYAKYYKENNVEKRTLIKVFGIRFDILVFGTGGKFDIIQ

[2] = target: T2, dysfunctional (non-functional) P2X7 receptor expressed on human cancer cells (human, UniProt Q99572 1-595); assay: cell-based or functional assay
T2 sequence: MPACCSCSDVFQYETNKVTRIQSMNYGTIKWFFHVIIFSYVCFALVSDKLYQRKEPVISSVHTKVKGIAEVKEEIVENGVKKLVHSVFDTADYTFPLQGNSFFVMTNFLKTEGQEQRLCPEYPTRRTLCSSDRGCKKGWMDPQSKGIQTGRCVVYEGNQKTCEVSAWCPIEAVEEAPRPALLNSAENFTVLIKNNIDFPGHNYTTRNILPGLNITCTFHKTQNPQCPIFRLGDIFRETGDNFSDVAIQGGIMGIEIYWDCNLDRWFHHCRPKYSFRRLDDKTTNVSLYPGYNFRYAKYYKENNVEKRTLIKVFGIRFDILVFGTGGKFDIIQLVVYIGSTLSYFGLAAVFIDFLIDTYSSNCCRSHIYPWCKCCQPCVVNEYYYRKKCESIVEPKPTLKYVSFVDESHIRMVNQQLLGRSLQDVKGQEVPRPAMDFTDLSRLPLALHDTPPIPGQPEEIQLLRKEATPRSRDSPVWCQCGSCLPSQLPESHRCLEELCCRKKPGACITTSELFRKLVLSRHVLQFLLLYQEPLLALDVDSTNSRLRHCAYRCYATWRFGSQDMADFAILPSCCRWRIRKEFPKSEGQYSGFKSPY

B1: PEP2-2-1-1 CAR (other)
chain: EVQLLESGGGLVQPGGSLRLSCAASGFTFRNHDMGWVRQAPGKGLEWVSAISGSGGSTYYADSVKGRFTISRDNSKNTLYLQMNSLRAEDTAVYYCAEPKPMDTEFDYRSPGTLVTVSSGGGESKYGPPCPSCPAPPVAGPSVFLFPPKPKDTLMISRTPEVTCVVVDVSQEDPEVQFNWYVDGVEVHNAKTKPREEQFNSTYRVVSVLTVLHQDWLNGKEYKCKVSNKGLPSSIEKTISKAKGQPREPQVYTLPPSQEEMTKNQVSLTCLVKGFYPSDIAVEWESNGQPENNYKTTPPVLDSDGSFFLYSRLTVDKSRWQEGNVFSCSVMHEALHNHYTQKSLSLSLGKPFWVLVVVGGVLACYSLLVTVAFIIFWVRSKRSRLLHSDYMNMTPRRPGPTRKHYQPYAPPRDFAAYRSRDQRLPPDAHKPPGGGSFRTPIQEEQADAHSTLAKIRVKFSRSADAPAYQQGQNQLYNELNLGRREEYDVLDKRRGRDPEMGGKPRRKNPQEGLYNELQKDKMAEAYSEIGMKGERRRGKGHDGLYQGLSTATKDTYDALHMQALPPR
fold change in cell killing against empty vector transduced CD8 T cells (CytoTox 96 assay, 4 hours, 1:1 ratio) [1]: ~15 fold | fold change in cell killing against empty vector transduced CD8 T cells (CytoTox 96 assay, 4 hours, 1:1 ratio, MDA-MB-231 cells) [2]: ~2.5 fold

B2: PEP2-472-2 CAR (other)
chain: EVQLLESGGGLVQPGGSLRLSCAASGYTFPMKDMGWVRQAPGKGLEWVSAISGSGGGTYYADSVKGRFTISRDNSKNTLYLQMNSLRAEDTAVYYCAEPKPMDTEFDYRSPGTLVTVLEGGGESKYGPPCPSCPAPPVAGPSVFLFPPKPKDTLMISRTPEVTCVVVDVSQEDPEVQFNWYVDGVEVHNAKTKPREEQFNSTYRVVSVLTVLHQDWLNGKEYKCKVSNKGLPSSIEKTISKAKGQPREPQVYTLPPSQEEMTKNQVSLTCLVKGFYPSDIAVEWESNGQPENNYKTTPPVLDSDGSFFLYSRLTVDKSRWQEGNVFSCSVMHEALHNHYTQKSLSLSLGKPFWVLVVVGGVLACYSLLVTVAFIIFWVRSKRSRLLHSDYMNMTPRRPGPTRKHYQPYAPPRDFAAYRSRDQRLPPDAHKPPGGGSFRTPIQEEQADAHSTLAKIRVKFSRSADAPAYQQGQNQLYNELNLGRREEYDVLDKRRGRDPEMGGKPRRKNPQEGLYNELQKDKMAEAYSEIGMKGERRRGKGHDGLYQGLSTATKDTYDALHMQALPPR
fold change in cell killing against empty vector transduced CD8 T cells (CytoTox 96 assay, 4 hours, 1:1 ratio) [1]: ~11 fold | fold change in cell killing against empty vector transduced CD8 T cells (CytoTox 96 assay, 4 hours, 1:1 ratio, MDA-MB-231 cells) [2]: ~2.25 fold
